T1: Biotinylated human CD3εδ heterodimer (Fc-fused human CD3ε / Fc-fused human CD3δ) (human, biotin on the Avi tag (BirA))
T1 chain 1: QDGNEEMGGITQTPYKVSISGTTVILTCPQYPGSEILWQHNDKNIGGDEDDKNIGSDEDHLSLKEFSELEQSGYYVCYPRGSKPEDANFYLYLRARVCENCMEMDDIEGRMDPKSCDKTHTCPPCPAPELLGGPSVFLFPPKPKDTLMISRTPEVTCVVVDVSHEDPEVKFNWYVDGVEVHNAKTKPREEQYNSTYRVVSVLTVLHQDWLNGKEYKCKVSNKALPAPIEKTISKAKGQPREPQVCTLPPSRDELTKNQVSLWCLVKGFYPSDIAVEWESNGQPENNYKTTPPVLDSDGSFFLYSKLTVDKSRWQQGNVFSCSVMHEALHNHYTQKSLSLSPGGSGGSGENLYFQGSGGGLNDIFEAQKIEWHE
T1 chain 2: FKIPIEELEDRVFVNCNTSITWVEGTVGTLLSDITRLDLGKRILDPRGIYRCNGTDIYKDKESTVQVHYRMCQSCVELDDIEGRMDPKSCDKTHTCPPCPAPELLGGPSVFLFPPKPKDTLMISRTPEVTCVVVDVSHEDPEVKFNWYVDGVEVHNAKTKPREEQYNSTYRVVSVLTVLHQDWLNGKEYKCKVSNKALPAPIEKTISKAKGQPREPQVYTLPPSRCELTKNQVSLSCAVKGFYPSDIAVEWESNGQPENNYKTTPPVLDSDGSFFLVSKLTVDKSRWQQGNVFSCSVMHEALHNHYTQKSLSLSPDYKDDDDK

B1: IC17 one arm (antibody, human IgG1, kappa, L234A L235A, N297A)
heavy chain (IC17Hdk-pE22Hh): QVQLQQSGPQLVRPGASVKISCKASGYSFTSYWMHWVNQRPGQGLEWIGMIDPSYSETRLNQKFKDKATLTVDKSSSTAYMQLSSPTSEDSAVYYCALYGNYFDYWGQGTTLTVSSASTKGPSVFPLAPSSKSTSGGTAALGCLVKDYFPEPVTVSWNSGALTSGVHTFPAVLQSSGLYSLSSVVTVPSSSLGTQTYICNVNHKPSNTKVDKKVEPKSCDKTHTCPPCPAPEAAGGPSVFLFPPKPKDTLMISRTPEVTCVVVDVSHEDPEVKFNWYVDGVEVHNAKTKPREEQYASTYRVVSVLTVLHQDWLNGKEYKCKVSNKALPAPIEKTISKAKGQPREPQVYTLPPSRCELTKNQVSLSCAVKGFYPSDIAVEWESNGQPENNYKTTPPVLDSDGSFFLVSKLTVDKSRWQQGNVFSCSVMHEALHNHYTQKSLSLSPDYKDDDDK
light chain (IC17L-k0): DIQMTQSSSSFSVSLGDRVTITCKASEDIYNRLAWYQQKPGNAPRLLISGATSLETGVPSRFSGSGSGKDYTLSITSLQTEDVATYYCQQYWSTPYTFGGGTKLEVKRTVAAPSVFIFPPSDEQLKSGTASVVCLLNNFYPREAKVQWKVDNALQSGNSQESVTEQDSKDSTYSLSSTLTLSKADYEKHKVYACEVTHQGLSSPVTKSFNRGEC
antibody fragment having no variable region (Kn010): not shown
notes: also called negative control anti-KLH antibody IC17 one arm (IC17Hdk-pE22Hh/IC17L-k0//Kn010)
B2: CLA0334 Fab fragment (from CLA0334VH-F760mnP17/CLA0334VL-k0C) (Fab, V domains shown)
VH: QEQLEESGGDLVKPEGSLTLTCTASGFSLSVSYWICWVRQAPGKGLEWIACIYAGSTGSTWYANWAKGRFTISKTSSTTVTLQMTSLTAADTATYFCARDSGWNAFDLWGPGTLVTVSS
VL: DVVMTQTPASVSAAVGGTVTIKCQASQSIGSNLAWYQQKSGHPPNLLIYEASGLASGVPLRFSGSGSGTQFTLTISDLECADAATYYCQSYYYSPSVSVHYAFGGGTEVVVKR
notes: Fab prepared from the full antibody with the Pierce Fab Preparation Kit; also called clamping antibody CLA0334

Columns and labels:
[1] = target: T1, Biotinylated human CD3εδ heterodimer …; experiment: BLI (Octet RED384), 37 C; biotinylated CD3εδ on streptavidin sensor, one-arm antibody in solution for 120 s
Procedure: (§1) Using an Octet RED 384 (ForteBio), a streptavidin sensor (ForteBio) was reacted with CD3εδ prepared at 0.2 μM in ACES at 37° C. for 300 seconds. […] Response values were extracted every three seconds, and graphs were depicted using Microsoft Excel 2013 (Microsoft).

[2] = target: T2, CD3ε epitope-fused CE115HA146 (CE115HAGP13-rabIgG/GLS3000-rabk); experiment: SPR (Biacore T200), ligand captured on protein A, Fab 0-400 nM as analyte, 37 C
T2 construct: stands for the antigen/antibody complex; Rabbit constant regions; also called CE115HAPG13
T2 sequence (heavy, as listed by the source, chain 1 of 2): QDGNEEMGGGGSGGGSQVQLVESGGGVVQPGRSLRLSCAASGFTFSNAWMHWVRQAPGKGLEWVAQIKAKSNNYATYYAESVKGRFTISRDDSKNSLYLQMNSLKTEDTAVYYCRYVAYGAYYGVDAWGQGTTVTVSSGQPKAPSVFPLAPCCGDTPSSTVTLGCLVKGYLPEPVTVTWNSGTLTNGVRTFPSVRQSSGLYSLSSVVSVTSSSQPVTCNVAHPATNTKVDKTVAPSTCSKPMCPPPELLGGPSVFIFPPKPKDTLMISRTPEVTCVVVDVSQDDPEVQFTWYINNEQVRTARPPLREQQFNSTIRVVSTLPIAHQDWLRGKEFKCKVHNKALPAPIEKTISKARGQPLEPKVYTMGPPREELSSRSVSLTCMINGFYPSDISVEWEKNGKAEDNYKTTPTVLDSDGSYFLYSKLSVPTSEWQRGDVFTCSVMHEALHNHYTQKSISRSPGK
T2 sequence (light, as listed by the source, chain 2 of 2): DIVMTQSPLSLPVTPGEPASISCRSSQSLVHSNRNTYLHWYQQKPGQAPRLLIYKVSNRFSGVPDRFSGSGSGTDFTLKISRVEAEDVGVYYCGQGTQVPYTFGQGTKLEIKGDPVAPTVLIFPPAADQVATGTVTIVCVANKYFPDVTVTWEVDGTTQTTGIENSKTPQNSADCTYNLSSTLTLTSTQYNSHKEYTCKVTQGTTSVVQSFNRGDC
Procedure: (§2) SuRe protein A (GE Healthcare) prepared at 25 μg/mL using Acetate4.5 (GE Healthcare) was immobilized on sensor chip CM4 at approximately 1000 RU per flow cell using an amine coupling kit (GE Healthcare).
(§3) The sensor chip was regenerated by passing Glycine1.5 and 25 mM NaOH, each at a flow rate of 30 μL/min for 15 seconds. The dissociation constant KD (M) was calculated based on the association rate constant ka (1/Ms) and the dissociation rate constant kd (1/s), which are kinetic parameters calculated from the sensorgram obtained by the measurement. Biacore T200 Evaluation Software (GE Healthcare) was used for calculation of each parameter.

[3] = target: T3, CD3ε epitope-fused CE115HA056 (CE115HAGP12-rabIgG/GLS3000-rabk); experiment: as above
T3 construct: rabbit constant regions; also called CE115HAPG12
T3 sequence (heavy, as listed by the source, chain 1 of 2): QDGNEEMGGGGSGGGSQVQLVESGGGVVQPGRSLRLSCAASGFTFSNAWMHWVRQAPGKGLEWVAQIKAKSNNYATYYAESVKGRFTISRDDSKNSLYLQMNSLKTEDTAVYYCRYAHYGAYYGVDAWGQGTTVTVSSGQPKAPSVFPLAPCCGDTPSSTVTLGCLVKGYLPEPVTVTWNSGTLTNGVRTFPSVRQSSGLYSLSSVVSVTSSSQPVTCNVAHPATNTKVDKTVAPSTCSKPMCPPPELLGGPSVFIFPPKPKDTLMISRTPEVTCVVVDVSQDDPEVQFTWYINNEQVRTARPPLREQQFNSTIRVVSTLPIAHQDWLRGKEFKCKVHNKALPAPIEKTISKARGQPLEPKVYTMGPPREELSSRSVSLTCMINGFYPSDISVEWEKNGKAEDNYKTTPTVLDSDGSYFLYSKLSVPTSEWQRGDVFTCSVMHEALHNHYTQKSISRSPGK
T3 sequence (light, as listed by the source, chain 2 of 2): as the sequence (light, as listed by the source, chain 2 of 2) above
Procedure: as §2, §3

[4] = target: T1, Biotinylated human CD3εδ heterodimer …; experiment: BLI (Octet RED384); CD3εδ on streptavidin sensor, IC17 one arm for 120 s, then 1 µM Fab in HBS-EP+ for 120 s
Procedure: as §1

[5] = target: CD3 antibody CE115HA146 (CE115HA146-F760mnP17/GLS3000-k0); experiment: SPR (Biacore), 37 C; ligand antibody captured on SuRe protein A chip (1000 RU), Fab as analyte at 100 nM for 180 s; amount of binding per 1 RU of ligand
CD3 antibody CE115HA146 (CE115HA146-F760mnP17/GLS3000-k0), sequence (heavy, as listed by the source): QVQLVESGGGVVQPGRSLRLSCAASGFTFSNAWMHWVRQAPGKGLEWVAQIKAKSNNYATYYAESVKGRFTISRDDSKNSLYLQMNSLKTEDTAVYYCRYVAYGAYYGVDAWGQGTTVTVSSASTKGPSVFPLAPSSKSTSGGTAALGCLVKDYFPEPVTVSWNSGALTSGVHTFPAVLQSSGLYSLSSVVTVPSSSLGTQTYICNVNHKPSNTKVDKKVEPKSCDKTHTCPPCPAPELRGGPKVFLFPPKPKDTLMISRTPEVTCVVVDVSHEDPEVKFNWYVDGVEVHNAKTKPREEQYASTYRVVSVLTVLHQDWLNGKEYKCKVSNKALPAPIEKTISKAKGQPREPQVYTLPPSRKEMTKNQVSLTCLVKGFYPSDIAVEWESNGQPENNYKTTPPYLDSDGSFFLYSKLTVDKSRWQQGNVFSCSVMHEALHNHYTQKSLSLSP
Procedure: as §2
(§4) First, to evaluate the binding specificity of the clamping antibodies, a ligand was reacted at 37° C. for 60 seconds at a flow rate of 10 μL/min to capture 1000 RU, and an analyte prepared at 100 nM was allowed to act for 180 seconds at a flow rate of 30 μL/min, and the amount of binding was measured.

[6] = target: T4, negative control IC17 (IC17Hdk-F760mnP17/IC17L-k0); experiment: as above
T4 construct: also called anti-KLH antibody
Procedure: as §2, §4

[7] = target: T5, CD3ε epitope-fused GPC3 antibody (hGC33VHGP01-rabCH1hG1m/hGC33VL-rabk); experiment: as above
T5 construct: control for recognition of the peptide alone
T5 sequence (VH, as listed by the source, chain 1 of 2): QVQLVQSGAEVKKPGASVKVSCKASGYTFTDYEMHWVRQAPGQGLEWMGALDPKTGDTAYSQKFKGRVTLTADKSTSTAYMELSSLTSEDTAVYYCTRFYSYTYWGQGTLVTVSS
T5 sequence (VL, as listed by the source, chain 2 of 2): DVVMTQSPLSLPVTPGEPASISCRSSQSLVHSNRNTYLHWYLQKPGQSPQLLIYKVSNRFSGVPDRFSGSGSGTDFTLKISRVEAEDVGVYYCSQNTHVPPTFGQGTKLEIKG
Procedure: as §2, §4

[8] = target: CD3 antibody CE115HA000 (CE115HA000-F760mnP17/GLS3000-k0); experiment: as above
CD3 antibody CE115HA000 (CE115HA000-F760mnP17/GLS3000-k0), sequence (VH, as listed by the source, chain 1 of 2): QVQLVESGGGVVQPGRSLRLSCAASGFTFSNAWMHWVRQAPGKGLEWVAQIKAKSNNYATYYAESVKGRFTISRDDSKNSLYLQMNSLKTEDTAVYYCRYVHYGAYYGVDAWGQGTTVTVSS
CD3 antibody CE115HA000 (CE115HA000-F760mnP17/GLS3000-k0), sequence (VL, as listed by the source, chain 2 of 2): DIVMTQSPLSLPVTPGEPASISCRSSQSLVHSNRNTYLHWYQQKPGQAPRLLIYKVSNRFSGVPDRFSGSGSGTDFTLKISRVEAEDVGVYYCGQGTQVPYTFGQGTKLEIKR
Procedure: as §2, §4

[9] = target: CD3 antibody CE115HA056 (CE115HA056-F760mnP17/GLS3000-k0); experiment: as above
CD3 antibody CE115HA056 (CE115HA056-F760mnP17/GLS3000-k0), sequence (heavy, as listed by the source): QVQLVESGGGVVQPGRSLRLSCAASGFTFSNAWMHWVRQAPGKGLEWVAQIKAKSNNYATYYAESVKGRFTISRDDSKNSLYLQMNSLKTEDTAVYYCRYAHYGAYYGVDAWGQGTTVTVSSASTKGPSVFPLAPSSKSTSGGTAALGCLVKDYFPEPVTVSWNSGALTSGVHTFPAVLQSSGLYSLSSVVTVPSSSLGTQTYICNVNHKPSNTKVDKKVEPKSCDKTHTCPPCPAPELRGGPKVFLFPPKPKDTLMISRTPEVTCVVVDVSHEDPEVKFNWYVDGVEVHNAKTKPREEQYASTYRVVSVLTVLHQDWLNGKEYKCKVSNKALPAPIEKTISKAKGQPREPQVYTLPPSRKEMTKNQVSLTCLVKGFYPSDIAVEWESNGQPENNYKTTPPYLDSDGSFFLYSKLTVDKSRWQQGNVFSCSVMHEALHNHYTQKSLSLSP
Procedure: as §2, §4

Row | Binder | binding result [1] | Kd [2] | Kd [3] | binding result [4] | binding result [5] | binding result [6] | binding result [7] | binding result [8] | binding result [9]
1 | B1 | no binding |  |  |  |  |  |  |  | 
2 | B2 |  | 150 nM | 110 nM | no binding (tested: 1 µM) | no binding (tested: 100 nM) | no binding (tested: 100 nM) | no binding (tested: 100 nM) | no binding (tested: 100 nM) | no binding (tested: 100 nM)

From patent publication US20240190960A1 (Chugai, published 2024)
